Common to all, as to experiment: EMSA
(In EMSA bound probe runs differently from free probe, usually more slowly.)

Series [1] concerns the target T1, E2F1 full-length (human, UniProt Q01094 1-437).
The target in series [2] is T1, E2F1 full-length. The source holds these as a separate data set.
For series [3], the target named is T1, E2F1 full-length. The source holds these as a separate data set.
The target in another series is E2F1 DBD L132E (UniProt Q01094 110-194, L132E).
A further series has as its target E2F1 DBD R166H (UniProt Q01094 110-194, R166H).

We go through five molecules from paper PMC12172627.

Read-outs that look alike come from different tables or passages of the source.

T1 sequence (Q01094 whole entry): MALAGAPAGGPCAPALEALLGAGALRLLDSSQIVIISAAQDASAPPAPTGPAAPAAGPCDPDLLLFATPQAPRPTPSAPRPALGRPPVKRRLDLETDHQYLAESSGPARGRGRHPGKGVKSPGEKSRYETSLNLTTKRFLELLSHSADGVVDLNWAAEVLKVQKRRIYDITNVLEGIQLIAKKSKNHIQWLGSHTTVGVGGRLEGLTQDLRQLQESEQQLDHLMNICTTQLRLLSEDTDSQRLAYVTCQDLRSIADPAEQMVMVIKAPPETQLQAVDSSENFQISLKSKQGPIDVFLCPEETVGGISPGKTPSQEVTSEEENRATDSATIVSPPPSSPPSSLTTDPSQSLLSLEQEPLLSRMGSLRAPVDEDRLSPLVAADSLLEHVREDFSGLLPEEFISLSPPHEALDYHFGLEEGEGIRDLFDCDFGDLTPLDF
Chain of E2F1 DBD L132E (Q01094 110-194 L132E): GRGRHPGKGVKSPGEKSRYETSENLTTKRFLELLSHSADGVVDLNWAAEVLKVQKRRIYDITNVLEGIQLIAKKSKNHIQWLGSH
Chain of E2F1 DBD R166H (Q01094 110-194 R166H): as the sequence (Q01094 110-194 L132E) above, with E23L, R57H counted along it

In the case of AUCGAUUUCCAGCUCGAUCGAUCGAGCUGGAAAUCGAU (structured_RNA) [BS1 double stranded (stem)], the binding result with E2F1 full-length [1] was “binds”.

As to AUCGAUUUCCCUCUCGAUCGAUCGAGAGGGAAAUCGAU (structured_RNA) [BS4 double stranded (stem)], the binding result with E2F1 full-length [1] is “binds”.

Take AUCGAUUCCCCGCUCGAUCGAUCGAGCGGGGAAUCGAU (structured_RNA) [BS3 double stranded (stem)]: the binding result with E2F1 full-length [2] was “binds”.

For the molecule AUCGAUUUCCCGCUCGAUCGAUCGAGCGGGAAAUCGAU (structured_RNA) [BS2 double stranded (stem)], in the series with E2F1 full-length [1], the binding result is recorded as “binds”.

B1: 42-mer dsDNA (2XE2F1_DNA_BS) (dsDNA)
DNA 1: GCCGTTTTCGCGCTTAAATTTGAGAAAGGGCGCGAAACTGGA
DNA 2: TCCAGTTTCGCGCCCTTTCTCAAATTTAAGCGCGAAAACGGC
On to B1, for which the binding result with E2F1 full-length [3], with E2F1 DBD L132E and with E2F1 DBD R166H was “binds” throughout.
